Source: PMC6555819, “Comprehensive study of nuclear receptor DNA binding provides a revised framework for understanding receptor specificity”

Tests used:
RARa:RXRa = RARa:RXRa (Homo sapiens, UniProt P10276;P19793 full;full); test: no ligand; PBM; 270 nM : 90 nM RXRa; PBS pH 7.4, 2% milk, 0.02% Triton X-100, 1 mM DTT, BSA, 0.4 mg/ml salmon testes DNA; conditions: tags: His kept;His cleaved; copies: 1;1; label: surface-attached array probe
Summary of the method: (§1)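 On custom Agilent 4×180K arrays, double-stranded probes with 34-nt variable regions carried direct-repeat seeds, single-nucleotide variants, half-site ablations or random human genomic background. Ligand-free nuclear receptor dimers were applied for 1 h, and binding was read with antibodies against each partner (one per run). Binding z-scores come from regression-normalized fluorescence, with the random background probes as reference.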

PXR:RXRa = PXR:RXRa (Homo sapiens, UniProt O75469;P19793 full;full); test: as above; conditions: tags: His kept;His cleaved; copies: 1;1; label: surface-attached array probe
Chain of PXR:RXRa (O75469 whole entry, chain 1 of 2): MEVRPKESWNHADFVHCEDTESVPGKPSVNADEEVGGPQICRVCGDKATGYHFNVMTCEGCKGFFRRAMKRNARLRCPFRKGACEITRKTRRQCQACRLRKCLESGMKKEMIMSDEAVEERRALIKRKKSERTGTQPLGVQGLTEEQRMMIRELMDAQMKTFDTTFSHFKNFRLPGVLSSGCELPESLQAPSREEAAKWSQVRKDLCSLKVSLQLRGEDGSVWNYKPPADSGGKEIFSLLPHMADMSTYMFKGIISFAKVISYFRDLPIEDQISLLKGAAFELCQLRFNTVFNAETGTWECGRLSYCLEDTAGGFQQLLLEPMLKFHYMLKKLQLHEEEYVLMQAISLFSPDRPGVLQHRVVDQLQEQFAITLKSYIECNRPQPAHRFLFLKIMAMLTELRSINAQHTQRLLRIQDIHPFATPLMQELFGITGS
Chain of PXR:RXRa (P19793 whole entry, chain 2 of 2): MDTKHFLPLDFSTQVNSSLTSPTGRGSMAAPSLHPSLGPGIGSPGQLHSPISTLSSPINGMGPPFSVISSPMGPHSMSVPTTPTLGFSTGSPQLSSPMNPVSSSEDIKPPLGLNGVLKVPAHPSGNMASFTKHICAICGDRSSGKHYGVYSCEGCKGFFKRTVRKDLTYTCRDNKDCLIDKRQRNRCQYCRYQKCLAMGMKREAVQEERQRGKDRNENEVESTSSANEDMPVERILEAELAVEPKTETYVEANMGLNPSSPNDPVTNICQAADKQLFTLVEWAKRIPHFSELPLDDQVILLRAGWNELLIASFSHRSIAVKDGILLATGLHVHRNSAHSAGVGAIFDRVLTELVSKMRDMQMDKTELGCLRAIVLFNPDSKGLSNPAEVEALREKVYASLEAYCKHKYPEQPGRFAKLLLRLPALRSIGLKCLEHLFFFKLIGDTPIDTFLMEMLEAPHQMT
Summary of the method: as §1

FXR:RXRa = FXR:RXRa (Homo sapiens, UniProt Q96RI1;P19793 full;full); test: as above; conditions: tags: His kept;His cleaved; copies: 1;1; label: surface-attached array probe
Chain of FXR:RXRa (Q96RI1 whole entry, chain 1 of 2): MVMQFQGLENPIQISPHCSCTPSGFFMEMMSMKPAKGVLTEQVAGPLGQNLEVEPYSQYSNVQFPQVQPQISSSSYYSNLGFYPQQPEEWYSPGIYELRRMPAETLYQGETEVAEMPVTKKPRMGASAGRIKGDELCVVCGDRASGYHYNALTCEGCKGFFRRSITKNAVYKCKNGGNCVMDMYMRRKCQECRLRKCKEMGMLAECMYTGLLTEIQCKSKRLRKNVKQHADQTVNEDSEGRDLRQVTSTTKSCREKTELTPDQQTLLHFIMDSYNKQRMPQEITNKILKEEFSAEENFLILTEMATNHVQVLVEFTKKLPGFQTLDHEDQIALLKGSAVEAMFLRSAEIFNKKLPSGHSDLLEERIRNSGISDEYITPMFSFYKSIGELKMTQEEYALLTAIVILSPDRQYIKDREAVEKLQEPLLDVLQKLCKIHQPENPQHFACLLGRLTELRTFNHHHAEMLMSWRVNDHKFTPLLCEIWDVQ
Chain of FXR:RXRa (P19793 whole entry, chain 2 of 2): as the sequence (P19793 whole entry, chain 2 of 2) above
Summary of the method: as §1

LXRa:RXRa = LXRa:RXRa (Homo sapiens, UniProt Q13133;P19793 full;full); test: as above; conditions: tags: His kept;His cleaved; copies: 1;1; label: surface-attached array probe
Summary of the method: as §1

RXRa = RXRa (Homo sapiens, UniProt P19793); test: no ligand; PBM; 180 nM; PBS pH 7.4, 2% milk, 0.02% Triton X-100, 1 mM DTT, BSA, 0.4 mg/ml salmon testes DNA; conditions: tags: His cleaved; chain copies: 2; label: surface-attached array probe
Chain of RXRa (P19793 whole entry): as the sequence (P19793 whole entry, chain 2 of 2) above
RARg:RXRa = RARg:RXRa (Homo sapiens, UniProt P13631;P19793 full;full); test: no ligand; PBM; 270 nM : 90 nM RXRa; PBS pH 7.4, 2% milk, 0.02% Triton X-100, 1 mM DTT, BSA, 0.4 mg/ml salmon testes DNA; conditions: tags: His kept;His cleaved; copies: 1;1; label: surface-attached array probe
Summary of the method: as §1

RARb:RXRa = RARb:RXRa (Homo sapiens, UniProt P10826;P19793 full;full); test: as above; conditions: tags: His kept;His cleaved; copies: 1;1; label: surface-attached array probe
Summary of the method: as §1

VDR:RXRa = VDR:RXRa (Homo sapiens, UniProt P11473;P19793 full;full); test: as above; conditions: tags: His kept;His cleaved; copies: 1;1; label: surface-attached array probe
Summary of the method: as §1

PPARa:RXRa = PPARa:RXRa (Homo sapiens, UniProt Q07869;P19793 full;full); test: as above; conditions: tags: GST kept;His cleaved; copies: 1;1; label: surface-attached array probe
Chain of PPARa:RXRa (Q07869 whole entry, chain 1 of 2): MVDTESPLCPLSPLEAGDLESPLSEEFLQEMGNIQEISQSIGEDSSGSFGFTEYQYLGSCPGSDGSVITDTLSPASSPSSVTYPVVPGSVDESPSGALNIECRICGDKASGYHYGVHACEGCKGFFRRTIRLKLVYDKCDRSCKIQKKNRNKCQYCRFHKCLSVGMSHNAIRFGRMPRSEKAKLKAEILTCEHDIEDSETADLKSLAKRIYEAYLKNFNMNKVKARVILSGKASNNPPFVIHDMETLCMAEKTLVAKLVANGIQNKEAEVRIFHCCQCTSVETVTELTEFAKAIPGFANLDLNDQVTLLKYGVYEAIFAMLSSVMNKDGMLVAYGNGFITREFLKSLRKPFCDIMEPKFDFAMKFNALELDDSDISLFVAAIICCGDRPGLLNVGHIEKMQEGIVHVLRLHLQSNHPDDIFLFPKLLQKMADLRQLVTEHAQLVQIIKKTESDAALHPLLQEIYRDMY
Chain of PPARa:RXRa (P19793 whole entry, chain 2 of 2): as the sequence (P19793 whole entry, chain 2 of 2) above
Summary of the method: as §1

LXRb:RXRa = LXRb:RXRa (Homo sapiens, UniProt P55055;P19793 full;full); test: as above; conditions: tags: His kept;His cleaved; copies: 1;1; label: surface-attached array probe
Summary of the method: as §1

Chain of RARa:RXRa (P10276 whole entry, chain 1 of 2): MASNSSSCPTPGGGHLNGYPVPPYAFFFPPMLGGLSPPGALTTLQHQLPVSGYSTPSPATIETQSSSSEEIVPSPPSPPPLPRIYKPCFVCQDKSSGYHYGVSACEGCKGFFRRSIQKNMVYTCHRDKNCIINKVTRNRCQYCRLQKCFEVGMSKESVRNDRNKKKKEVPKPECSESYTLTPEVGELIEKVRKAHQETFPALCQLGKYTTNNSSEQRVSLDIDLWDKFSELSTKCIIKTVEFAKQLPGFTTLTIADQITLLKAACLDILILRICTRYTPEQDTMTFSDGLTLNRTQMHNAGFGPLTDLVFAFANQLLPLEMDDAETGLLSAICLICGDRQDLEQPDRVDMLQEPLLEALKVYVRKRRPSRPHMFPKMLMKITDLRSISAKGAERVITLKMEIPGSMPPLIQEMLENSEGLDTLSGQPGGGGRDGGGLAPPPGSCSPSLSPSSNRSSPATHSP
Chain of RARa:RXRa (P19793 whole entry, chain 2 of 2): as the sequence (P19793 whole entry, chain 2 of 2) above

Row | Binder | binding signal (RARa:RXRa) | binding signal (PXR:RXRa) | binding signal (FXR:RXRa) | binding signal (LXRa:RXRa) | binding signal (RXRa) | binding signal (RARg:RXRa) | binding signal (RARb:RXRa) | binding signal (VDR:RXRa) | binding signal (PPARa:RXRa) | binding signal (LXRb:RXRa)
1 | NRC3_random_hg19_58_o1 (dsDNA) DNA 1: GCAAGACTCCTGGCTCTGATTCTAAACTAAACATAGGCGATTGACAGCGTAGAATGAAGG DNA 2: CCTTCATTCTACGCTGTCAATCGCCTATGTTTAGTTTAGAATCAGAGCCAGGAGTCTTGC | -0.89 PBM z-score against 500 random probes | -0.84 PBM z-score against 500 random probes | – | – | – | – | – | – | – | –
2 | NRC3_wobSeed109_DR4_C7T_o1 (dsDNA) DNA 1: GCCGTCTAAGGTCATAGGAGGTCAGTGAAGACAGATGCGATTGACAGCGTAGAATGAAGG DNA 2: CCTTCATTCTACGCTGTCAATCGCATCTGTCTTCACTGACCTCCTATGACCTTAGACGGC | 7.11 PBM z-score against 500 random probes | 7.34 PBM z-score against 500 random probes | 8.24 PBM z-score against 500 random probes | 8.01 PBM z-score against 500 random probes | – | – | – | – | – | –
3 | NRC3_wobSeed29_DR1_C8G_o1 (dsDNA) DNA 1: GCGCTTAGGGGTCAAAGGTTATAGCATGAATAGAATGCGATTGACAGCGTAGAATGAAGG DNA 2: CCTTCATTCTACGCTGTCAATCGCATTCTATTCATGCTATAACCTTTGACCCCTAAGCGC | 9.11 PBM z-score against 500 random probes | 7.35 PBM z-score against 500 random probes | 9.03 PBM z-score against 500 random probes | 7.36 PBM z-score against 500 random probes | 10.6 PBM z-score against 500 random probes | 8.66 PBM z-score against 500 random probes | 5.84 PBM z-score against 500 random probes | 7.19 PBM z-score against 500 random probes | 7.64 PBM z-score against 500 random probes | 7.75 PBM z-score against 500 random probes
4 | NRC3_wobSeed29_DR1_C8A_o1 (dsDNA) DNA 1: GCGCTTAAGGGTCAAAGGTTATAGCATGAATAGAATGCGATTGACAGCGTAGAATGAAGG DNA 2: CCTTCATTCTACGCTGTCAATCGCATTCTATTCATGCTATAACCTTTGACCCTTAAGCGC | 9.1 PBM z-score against 500 random probes | 6.86 PBM z-score against 500 random probes | 8.78 PBM z-score against 500 random probes | – | – | 7.9 PBM z-score against 500 random probes | 5.58 PBM z-score against 500 random probes | – | – | 6.56 PBM z-score against 500 random probes
5 | NRC3_random_hg19_33_o1 (dsDNA) DNA 1: GCATCTGCATAGAGCTAGAGCTATTGATTCAAAGAGGCGATTGACAGCGTAGAATGAAGG DNA 2: CCTTCATTCTACGCTGTCAATCGCCTCTTTGAATCAATAGCTCTAGCTCTATGCAGATGC | -1.05 PBM z-score against 500 random probes | -1.09 PBM z-score against 500 random probes | – | – | – | – | -1.35 PBM z-score against 500 random probes | – | – | –
6 | NRC3_wobSeed26_DR1_A23G_o1 (dsDNA) DNA 1: GCTCTAGTTGGTCAAAGGTCACGCACTCGAAATGCGGCGATTGACAGCGTAGAATGAAGG DNA 2: CCTTCATTCTACGCTGTCAATCGCCGCATTTCGAGTGCGTGACCTTTGACCAACTAGAGC | 8.13 PBM z-score against 500 random probes | 6.52 PBM z-score against 500 random probes | – | – | – | 7.77 PBM z-score against 500 random probes | 5.6 PBM z-score against 500 random probes | – | – | 6.1 PBM z-score against 500 random probes
7 | NRC3_wobSeed85_DR3_G15T_o1 (dsDNA) DNA 1: GCCGTCCAAGGTCATAGAGGTCAGTGAATGCCGAGTGCGATTGACAGCGTAGAATGAAGG DNA 2: CCTTCATTCTACGCTGTCAATCGCACTCGGCATTCACTGACCTCTATGACCTTGGACGGC | 7.13 PBM z-score against 500 random probes | 6.83 PBM z-score against 500 random probes | 7.72 PBM z-score against 500 random probes | – | – | – | – | 7.93 PBM z-score against 500 random probes | – | –
8 | NRC3_wobSeed18_DR0_A8G_o1 (dsDNA) DNA 1: GCGATACGGGGTCAAGGCCAGAGTACGCGTATTGATGCGATTGACAGCGTAGAATGAAGG DNA 2: CCTTCATTCTACGCTGTCAATCGCATCAATACGCGTACTCTGGCCTTGACCCCGTATCGC | 7.56 PBM z-score against 500 random probes | 6.46 PBM z-score against 500 random probes | 8.08 PBM z-score against 500 random probes | – | 8.69 PBM z-score against 500 random probes | – | – | – | 6.56 PBM z-score against 500 random probes | 5.96 PBM z-score against 500 random probes
9 | NRC3_wobSeed53_DR2_T21C_o1 (dsDNA) DNA 1: GCCCTTACGGGTCACGAGGTCATAGCACGACGAGCGGCGATTGACAGCGTAGAATGAAGG DNA 2: CCTTCATTCTACGCTGTCAATCGCCGCTCGTCGTGCTATGACCTCGTGACCCGTAAGGGC | 8.05 PBM z-score against 500 random probes | 6.58 PBM z-score against 500 random probes | 8.01 PBM z-score against 500 random probes | – | 8.57 PBM z-score against 500 random probes | 7.59 PBM z-score against 500 random probes | – | 6.6 PBM z-score against 500 random probes | 6.48 PBM z-score against 500 random probes | –
10 | NRC3_wobSeed123_DR5_A12T_o1 (dsDNA) DNA 1: GCCCTCGGAGGTCAACAGGAGGTCAGAGCTGCCAGAGCGATTGACAGCGTAGAATGAAGG DNA 2: CCTTCATTCTACGCTGTCAATCGCTCTGGCAGCTCTGACCTCCTGTTGACCTCCGAGGGC | 7.44 PBM z-score against 500 random probes | 6.48 PBM z-score against 500 random probes | 7.97 PBM z-score against 500 random probes | 6.72 PBM z-score against 500 random probes | – | 8.86 PBM z-score against 500 random probes | 5.85 PBM z-score against 500 random probes | – | 6.94 PBM z-score against 500 random probes | –
11 | NRC3_wobSeed114_DR4_A8G_o1 (dsDNA) DNA 1: GCAATACGGGGTCATCGTAGGCCAGAGTACGCACAGGCGATTGACAGCGTAGAATGAAGG DNA 2: CCTTCATTCTACGCTGTCAATCGCCTGTGCGTACTCTGGCCTACGATGACCCCGTATTGC | 7.2 PBM z-score against 500 random probes | 6.64 PBM z-score against 500 random probes | 8.6 PBM z-score against 500 random probes | 7.63 PBM z-score against 500 random probes | 9.29 PBM z-score against 500 random probes | 7.44 PBM z-score against 500 random probes | – | 7.09 PBM z-score against 500 random probes | 6.87 PBM z-score against 500 random probes | 6.75 PBM z-score against 500 random probes
12 | NRC3_wobSeed89_DR3_G16A_o1 (dsDNA) DNA 1: GCCTATGTAGGTTAAAGGGGTCATTCAGTTTGAAAGGCGATTGACAGCGTAGAATGAAGG DNA 2: CCTTCATTCTACGCTGTCAATCGCCTTTCAAACTGAATGACCCCTTTAACCTACATAGGC | 7.03 PBM z-score against 500 random probes | 6.77 PBM z-score against 500 random probes | – | – | – | – | – | 8.06 PBM z-score against 500 random probes | – | –
13 | NRC3_wobSeed97_DR4_C7A_o1 (dsDNA) DNA 1: GCCAAAATAGGTCACGAAAGGTCAAAGTCGAATGACGCGATTGACAGCGTAGAATGAAGG DNA 2: CCTTCATTCTACGCTGTCAATCGCGTCATTCGACTTTGACCTTTCGTGACCTATTTTGGC | 8.32 PBM z-score against 500 random probes | 7.78 PBM z-score against 500 random probes | 8.43 PBM z-score against 500 random probes | – | – | 8.41 PBM z-score against 500 random probes | – | 7.26 PBM z-score against 500 random probes | – | 7.91 PBM z-score against 500 random probes
14 | NRC3_random_hg19_391_o1 (dsDNA) DNA 1: GCTAGATATGAGTCTGGCTTGCTGCTATCTACTTCAGCGATTGACAGCGTAGAATGAAGG DNA 2: CCTTCATTCTACGCTGTCAATCGCTGAAGTAGATAGCAGCAAGCCAGACTCATATCTAGC | -0.46 PBM z-score against 500 random probes | -0.47 PBM z-score against 500 random probes | – | – | – | – | – | – | – | -0.73 PBM z-score against 500 random probes
15 | NRC3_random_hg19_25_o1 (dsDNA) DNA 1: GCGAGCCACCACGCCTGGCCTCTCCGATCTCCAACTGCGATTGACAGCGTAGAATGAAGG DNA 2: CCTTCATTCTACGCTGTCAATCGCAGTTGGAGATCGGAGAGGCCAGGCGTGGTGGCTCGC | -0.44 PBM z-score against 500 random probes | -0.45 PBM z-score against 500 random probes | – | -0.38 PBM z-score against 500 random probes | – | – | – | – | – | -0.09 PBM z-score against 500 random probes
16 | NRC3_wobSeed41_DR1_A15G_o1 (dsDNA) DNA 1: GCATATGTAGGTTAGGGGTCATTCAGGTTGGTTCGCGCGATTGACAGCGTAGAATGAAGG DNA 2: CCTTCATTCTACGCTGTCAATCGCGCGAACCAACCTGAATGACCCCTAACCTACATATGC | 7.24 PBM z-score against 500 random probes | 6.45 PBM z-score against 500 random probes | – | – | – | – | – | 6.69 PBM z-score against 500 random probes | – | 5.79 PBM z-score against 500 random probes
17 | NRC3_wobSeed124_DR5_C12T_o1 (dsDNA) DNA 1: GCCCTACTGGGTCATTCAGAGGTCATTGATCATATGGCGATTGACAGCGTAGAATGAAGG DNA 2: CCTTCATTCTACGCTGTCAATCGCCATATGATCAATGACCTCTGAATGACCCAGTAGGGC | 7.55 PBM z-score against 500 random probes | 6.43 PBM z-score against 500 random probes | – | – | – | 8.13 PBM z-score against 500 random probes | – | – | – | –
